# Data taken from US11440969B2, “Use of human epididymis protein 4 (HE4) for assessing responsiveness of MUC 16-positive cancer treatment” (Genentech, Inc., priority 2016, dated 2022).
# Tested on: platinum-resistant ovarian cancer
# Assay: Clinical activity of anti-MUC16-TDC (RECIST v1.1) in ovarian cancer patients
# Format: in vivo, human
# Settings: 1.0-5.6 mg/kg q3w
# Description: This Phase I, multicenter, open-label, dose escalation study was designed to identify the recommended Phase II dose (RP2D) of DMUC4064A (anti-MUC16-TDC) in platinum-resistant ovarian cancer patients and unresectable pancreatic cancer patients. The study employed a traditional 3+3 dose escalation design to determine the maximum tolerated dose (MTD), and the patients were administered intravenous (IV) DMUC4064A (Genentech Inc.) 1.0-5.6 mg/kg every three weeks (q3w) to evaluate the safety, tolerability, and pharmacokinetics of DMUC4064A.
# Ovarian cancer patients had advanced epithelial ovarian, primary peritoneal, or fallopian tube cancer that progressed or relapsed within 6 months after the most recent treatment with a platinum-containing chemotherapy regimen. […] Progression or relapse from prior platinum-based chemotherapy was documented by RECIST v1.1. Patients were allowed ≤2 prior chemotherapy regimens.
# Treatment (using anti-MUC16-TDC) response rate was estimated for patients with disease that was measurable by RECIST guidelines. Patients were identified as having a partial response (PR), stable disease (SD), or progressive disease (PD) as measured by RECIST v1.1. Objective response is defined as a complete or partial response, as determined by investigator assessment and confirmed by repeat assessments ≥4 weeks after initial documentation. Duration of objective response was defined as the time from the initial complete or partial response to the time of disease progression or death.
# [1] = end point of the clinical trial
molecule,measurement,setting,value
"DMUC4064A (conjugate, chains of the INN, looked up, vedotin payload (MMAE)) VH: EVQLVESGGGLVQPGGSLRLSCAASGYSITNDYAWNWVRQAPGKGLEWVGYISYSGYTTYNPSLKSRFTISRDTSKNTLYLQMNSLRAEDTAVYYCARWTSGLDYWGQGTLVTVSS VL: DIQMTQSPSSLSASVGDRVTITCKASDLIHNWLAWYQQKPGKAPKLLIYGATSLETGVPSRFSGSGSGTDFTLTISSLQPEDFATYYCQQYWTTPFTFGQGTKVEIK",additional patients with a partial response at some point during the study,,six
same,patients with progressive disease,conclusion of the study,ten
same,patients who maintained stable disease,[1],23
same,patients with a partial response to treatment,[1],two
